One molecule from publication PMC8786652 (Cell reports, 2022) can be followed below.

In the test the target is recombinant stabilized SARS-CoV-2 Spike ectodomain (S-6P, HexaPro Spike), his-tagged (SARS-CoV-2, Wuhan-Hu-1 (HexaPro …, stabilised)). Description: SPR. (In general: In SPR one partner is held on a chip, and binding of the other changes the refractive index at the surface.)

B1: CV3-13 Fab (Fab, V domains shown)
VH: QVQLQQSGPGLVKPSQTLSLTCTVAGGSISSGTYYWSWIRQPAGKGLEWIGRIYTSGSANYNPSLKSRVTISVDTSKNQFSLRLSSVTAEDTAVYYCAREYSSSYYYFYYMDVWGKGTTVTVSS
VL: AIRMTQSPSSLSASVGDRVTITCQASQDISNYLNWYQQKPGKAPKLLIYVASNLETGVPSRFSGSGFGTDFTFTISSLQPEDIATYYCQQFDNLPYTFGQGTKLEIK
For B1, the equilibrium dissociation constant (Kd) (as a rule, the equilibrium constant for the complex coming apart) was approximately 55 nM.
